In patent EP4786492A1:
Changes are numbered by the printed parent chain. One block for each binder: values may come before it.

What was measured:
[1] = molecular target: DLL3 endogenously expressed on NCI-H82 cells (UniProt Q9NYJ7); assay: FACS on NCI-H82 cells; antibody 0.16 nM
[2] = molecular target: DLL3 endogenously expressed on NCI-H82 cells (UniProt Q9NYJ7); assay: FACS on NCI-H82 cells; antibody 4 nM
[3] = molecular target: human DLL1 protein (Acro, Cat. No. DL1-H52H8) (human) (UniProt O00548); assay: ELISA, coated hDLL1; maximum over 0.1, 1, 10, 100 nM antibody
[4] = molecular target: mouse DLL3 on CHO-K1-mDLL3 cells (mouse) (UniProt O88516); assay: FACS, CHO-K1-mDLL3 cells, 0.0064 nM antibody
[5] = molecular target: mouse DLL3 on CHO-K1-mDLL3 cells (mouse) (UniProt O88516); assay: FACS, CHO-K1-mDLL3 cells, 0.00128 nM antibody
[6] = molecular target: human delta-like ligand 3 (DLL3) on SHP77 cells (human) (UniProt Q9NYJ7); assay: FACS on SHP77 cells
[7] = molecular target: mouse DLL3 on CHO-K1-mDLL3 cells (mouse) (UniProt O88516); assay: FACS, CHO-K1-mDLL3 cells, 0.032 nM antibody
[8] = molecular target: monkey DLL3 on CHO-K1-cyno DLL3 cells (cynomolgus monkey); assay: FACS, CHO-K1-cyno DLL3 cells, 0.16 nM antibody
[9] = molecular target: human DLL4 protein (Acro, Cat. No. DL4-H5227) (human) (UniProt Q9NR61); assay: ELISA, coated hDLL4; maximum over 0.1, 1, 10, 100 nM antibody
[10] = molecular target: mouse DLL3 on CHO-K1-mDLL3 cells (mouse) (UniProt O88516); assay: FACS, CHO-K1-mDLL3 cells, 100 nM antibody
[11] = molecular target: DLL3 endogenously expressed on NCI-H82 cells (UniProt Q9NYJ7); assay: FACS on NCI-H82 cells; antibody 0.032 nM
[12] = molecular target: mouse DLL3 on CHO-K1-mDLL3 cells (mouse) (UniProt O88516); assay: FACS, CHO-K1-mDLL3 cells, 0.8 nM antibody
[13] = molecular target: monkey DLL3 on CHO-K1-cyno DLL3 cells (cynomolgus monkey); assay: FACS, CHO-K1-cyno DLL3 cells, 0.00128 nM antibody
[14] = molecular target: human DLL3 protein expressed on CHO-K1 recombinant cells (human DLL3 extracellular segment fused to EpCAM transmembrane and intracellular regions) (human) (UniProt Q9NYJ7); assay: FACS, CHO-K1 hDLL3 cells, 0.8 nM antibody
[15] = molecular target: mouse DLL3 on CHO-K1-mDLL3 cells (mouse) (UniProt O88516); assay: FACS, CHO-K1-mDLL3 cells, 0.16 nM antibody
[16] = molecular target: monkey DLL3 on CHO-K1-cyno DLL3 cells (cynomolgus monkey); assay: FACS, CHO-K1-cyno DLL3 cells, 4 nM antibody
[17] = molecular target: DLL3 endogenously expressed on NCI-H82 cells (UniProt Q9NYJ7); assay: FACS on NCI-H82 cells; antibody 20 nM
[18] = molecular target: human DLL3 protein expressed on CHO-K1 recombinant cells (human DLL3 extracellular segment fused to EpCAM transmembrane and intracellular regions) (human) (UniProt Q9NYJ7); assay: FACS, CHO-K1 hDLL3 cells, 100 nM antibody
[19] = molecular target: monkey DLL3 on CHO-K1-cyno DLL3 cells (cynomolgus monkey); assay: FACS, CHO-K1-cyno DLL3 cells, 0.0064 nM antibody
[20] = molecular target: monkey DLL3 on CHO-K1-cyno DLL3 cells (cynomolgus monkey); assay: FACS, CHO-K1-cyno DLL3 cells, 0.032 nM antibody
[21] = molecular target: DLL3 endogenously expressed on NCI-H82 cells (UniProt Q9NYJ7); assay: FACS on NCI-H82 cells; antibody 100 nM
[22] = molecular target: human DLL3 protein expressed on CHO-K1 recombinant cells (human DLL3 extracellular segment fused to EpCAM transmembrane and intracellular regions) (human) (UniProt Q9NYJ7); assay: FACS, CHO-K1 hDLL3 cells, 0.0064 nM antibody
[23] = molecular target: monkey DLL3 on CHO-K1-cyno DLL3 cells (cynomolgus monkey); assay: FACS, CHO-K1-cyno DLL3 cells, 0.8 nM antibody
[24] = molecular target: DLL3 endogenously expressed on NCI-H82 cells (UniProt Q9NYJ7); assay: FACS on NCI-H82 cells; antibody 0.00128 nM
[25] = molecular target: human DLL3 protein expressed on CHO-K1 recombinant cells (human DLL3 extracellular segment fused to EpCAM transmembrane and intracellular regions) (human) (UniProt Q9NYJ7); assay: FACS, CHO-K1 hDLL3 cells, 0.16 nM antibody
[26] = molecular target: DLL3 endogenously expressed on NCI-H82 cells (UniProt Q9NYJ7); assay: FACS on NCI-H82 cells; antibody 0.8 nM
[27] = molecular target: mouse DLL3 on CHO-K1-mDLL3 cells (mouse) (UniProt O88516); assay: FACS, CHO-K1-mDLL3 cells, 20 nM antibody
[28] = molecular target: human DLL3 protein expressed on CHO-K1 recombinant cells (human DLL3 extracellular segment fused to EpCAM transmembrane and intracellular regions) (human) (UniProt Q9NYJ7); assay: FACS, CHO-K1 hDLL3 cells, 0.032 nM antibody
[29] = molecular target: monkey DLL3 on CHO-K1-cyno DLL3 cells (cynomolgus monkey); assay: FACS, CHO-K1-cyno DLL3 cells, 20 nM antibody
[30] = molecular target: human DLL3 protein expressed on CHO-K1 recombinant cells (human DLL3 extracellular segment fused to EpCAM transmembrane and intracellular regions) (human) (UniProt Q9NYJ7); assay: FACS, CHO-K1 hDLL3 cells, 4 nM antibody
[31] = molecular target: DLL3 endogenously expressed on NCI-H82 cells (UniProt Q9NYJ7); assay: FACS on NCI-H82 cells; antibody 0.0064 nM
[32] = molecular target: human DLL3 protein expressed on CHO-K1 recombinant cells (human DLL3 extracellular segment fused to EpCAM transmembrane and intracellular regions) (human) (UniProt Q9NYJ7); assay: FACS, CHO-K1 hDLL3 cells, 0.00128 nM antibody
[33] = molecular target: monkey DLL3 on CHO-K1-cyno DLL3 cells (cynomolgus monkey); assay: FACS, CHO-K1-cyno DLL3 cells, 100 nM antibody
[34] = molecular target: human DLL3 protein expressed on CHO-K1 recombinant cells (human DLL3 extracellular segment fused to EpCAM transmembrane and intracellular regions) (human) (UniProt Q9NYJ7); assay: FACS, CHO-K1 hDLL3 cells, 20 nM antibody
[35] = molecular target: mouse DLL3 on CHO-K1-mDLL3 cells (mouse) (UniProt O88516); assay: FACS, CHO-K1-mDLL3 cells, 4 nM antibody

Chain of human delta-like ligand 3 (DLL3) on SHP77 cells (human) (Q9NYJ7 27-618, stated change not applied): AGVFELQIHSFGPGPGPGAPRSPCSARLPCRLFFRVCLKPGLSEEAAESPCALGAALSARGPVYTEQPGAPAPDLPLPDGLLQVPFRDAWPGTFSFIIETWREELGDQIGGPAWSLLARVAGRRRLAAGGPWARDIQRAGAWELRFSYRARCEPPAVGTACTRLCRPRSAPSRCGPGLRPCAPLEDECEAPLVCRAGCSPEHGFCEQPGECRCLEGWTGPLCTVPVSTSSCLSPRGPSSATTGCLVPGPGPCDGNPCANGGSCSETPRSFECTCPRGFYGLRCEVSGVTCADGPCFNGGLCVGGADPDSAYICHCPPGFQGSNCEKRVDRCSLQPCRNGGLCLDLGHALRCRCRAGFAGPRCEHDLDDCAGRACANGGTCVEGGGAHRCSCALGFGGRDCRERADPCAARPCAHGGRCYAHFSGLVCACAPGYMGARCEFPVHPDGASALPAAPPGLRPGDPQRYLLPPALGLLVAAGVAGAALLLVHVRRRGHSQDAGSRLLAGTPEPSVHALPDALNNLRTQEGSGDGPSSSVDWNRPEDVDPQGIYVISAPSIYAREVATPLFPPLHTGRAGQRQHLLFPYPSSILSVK
Chain of DLL3 endogenously expressed on NCI-H82 cells (Q9NYJ7 27-618): as the sequence (Q9NYJ7 27-618, stated change not applied) above
Chain of human DLL3 protein expressed on CHO-K1 recombinant cells (human DLL3 extracellular segment fused to EpCAM transmembrane and intracellular regions) (human) (Q9NYJ7 other isoform, or with tags, fused parts or gaps limits assumed): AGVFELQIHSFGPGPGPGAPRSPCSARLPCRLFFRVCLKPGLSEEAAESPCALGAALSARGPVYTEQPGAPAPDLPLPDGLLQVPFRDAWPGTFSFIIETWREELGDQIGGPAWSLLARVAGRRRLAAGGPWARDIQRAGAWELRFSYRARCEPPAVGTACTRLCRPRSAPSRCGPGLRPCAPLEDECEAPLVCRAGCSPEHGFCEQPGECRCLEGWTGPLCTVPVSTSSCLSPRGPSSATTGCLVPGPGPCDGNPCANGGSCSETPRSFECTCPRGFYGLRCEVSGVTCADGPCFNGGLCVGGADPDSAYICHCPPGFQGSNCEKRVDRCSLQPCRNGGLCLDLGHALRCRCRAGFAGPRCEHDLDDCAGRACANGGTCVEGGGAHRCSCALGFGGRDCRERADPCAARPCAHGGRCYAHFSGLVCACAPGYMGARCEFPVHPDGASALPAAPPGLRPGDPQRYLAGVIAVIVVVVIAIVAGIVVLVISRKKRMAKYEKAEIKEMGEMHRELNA
Chain of mouse DLL3 on CHO-K1-mDLL3 cells (mouse) (O88516 other isoform, or with tags, fused parts or gaps limits assumed): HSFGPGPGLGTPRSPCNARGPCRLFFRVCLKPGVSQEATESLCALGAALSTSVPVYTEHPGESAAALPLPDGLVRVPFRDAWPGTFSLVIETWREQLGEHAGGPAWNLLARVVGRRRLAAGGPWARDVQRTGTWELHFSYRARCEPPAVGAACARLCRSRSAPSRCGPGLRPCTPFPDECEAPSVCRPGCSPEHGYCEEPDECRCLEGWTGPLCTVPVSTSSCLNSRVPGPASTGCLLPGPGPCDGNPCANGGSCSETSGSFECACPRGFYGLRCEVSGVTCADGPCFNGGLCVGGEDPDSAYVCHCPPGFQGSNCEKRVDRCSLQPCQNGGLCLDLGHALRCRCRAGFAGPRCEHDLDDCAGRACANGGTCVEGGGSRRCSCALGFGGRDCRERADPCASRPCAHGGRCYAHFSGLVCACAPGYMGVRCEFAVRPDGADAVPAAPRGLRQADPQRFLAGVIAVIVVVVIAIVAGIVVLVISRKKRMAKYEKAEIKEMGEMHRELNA
Chain of monkey DLL3 on CHO-K1-cyno DLL3 cells (cynomolgus monkey) (chain, as listed by the source limits assumed): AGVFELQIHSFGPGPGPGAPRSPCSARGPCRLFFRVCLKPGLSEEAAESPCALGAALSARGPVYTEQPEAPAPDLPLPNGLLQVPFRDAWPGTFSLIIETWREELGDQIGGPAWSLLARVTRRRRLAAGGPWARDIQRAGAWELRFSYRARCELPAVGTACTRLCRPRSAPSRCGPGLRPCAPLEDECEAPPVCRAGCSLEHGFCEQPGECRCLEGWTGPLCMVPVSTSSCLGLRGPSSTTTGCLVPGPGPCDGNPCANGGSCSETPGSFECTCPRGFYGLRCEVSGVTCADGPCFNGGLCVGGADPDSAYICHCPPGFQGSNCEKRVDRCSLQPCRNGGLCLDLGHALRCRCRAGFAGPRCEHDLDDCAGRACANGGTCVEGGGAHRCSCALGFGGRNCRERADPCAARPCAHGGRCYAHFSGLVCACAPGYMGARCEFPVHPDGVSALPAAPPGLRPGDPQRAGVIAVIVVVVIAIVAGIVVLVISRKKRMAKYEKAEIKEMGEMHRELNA
Chain of human DLL4 protein (Acro, Cat. No. DL4-H5227) (human) (Q9NR61 27-524 limits assumed): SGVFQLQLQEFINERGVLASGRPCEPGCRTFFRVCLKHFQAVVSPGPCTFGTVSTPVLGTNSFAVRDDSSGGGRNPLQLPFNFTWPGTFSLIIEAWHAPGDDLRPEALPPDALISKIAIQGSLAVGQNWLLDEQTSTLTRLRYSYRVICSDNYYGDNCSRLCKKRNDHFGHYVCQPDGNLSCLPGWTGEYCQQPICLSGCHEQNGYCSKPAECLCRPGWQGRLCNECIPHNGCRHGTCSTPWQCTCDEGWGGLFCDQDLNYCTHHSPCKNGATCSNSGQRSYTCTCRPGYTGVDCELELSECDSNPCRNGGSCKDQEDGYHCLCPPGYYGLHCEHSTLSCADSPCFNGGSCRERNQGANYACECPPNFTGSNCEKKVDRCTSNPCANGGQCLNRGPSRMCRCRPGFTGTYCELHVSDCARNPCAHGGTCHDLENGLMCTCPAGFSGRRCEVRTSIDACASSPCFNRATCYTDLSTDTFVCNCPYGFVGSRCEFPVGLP
Chain of human DLL1 protein (Acro, Cat. No. DL1-H52H8) (human) (O00548 18-540 limits assumed): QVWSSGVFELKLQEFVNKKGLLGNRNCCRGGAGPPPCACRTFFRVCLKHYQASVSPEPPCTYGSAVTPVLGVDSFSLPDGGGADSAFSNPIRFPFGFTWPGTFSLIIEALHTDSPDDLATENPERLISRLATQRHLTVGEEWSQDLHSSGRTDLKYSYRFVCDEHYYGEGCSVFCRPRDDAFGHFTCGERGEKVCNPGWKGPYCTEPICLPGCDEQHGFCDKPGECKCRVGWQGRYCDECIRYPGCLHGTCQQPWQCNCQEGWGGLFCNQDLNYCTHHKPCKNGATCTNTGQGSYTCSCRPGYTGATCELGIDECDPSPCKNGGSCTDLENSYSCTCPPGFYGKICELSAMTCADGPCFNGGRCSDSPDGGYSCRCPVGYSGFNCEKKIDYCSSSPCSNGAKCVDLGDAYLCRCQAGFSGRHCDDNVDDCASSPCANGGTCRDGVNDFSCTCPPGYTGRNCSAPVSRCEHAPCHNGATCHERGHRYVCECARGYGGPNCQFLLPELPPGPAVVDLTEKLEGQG

MFI [1]: 426
MFI [2]: 745
Emax of OD450 nm binding value [3]: 0.43 OD450 nm
MFI [4]: 131 MFI
MFI [5]: 122 MFI
MFI at 0.00128 nM [6]: 102 MFI
MFI at 0.0064 nM [6]: 118 MFI
MFI at 0.032 nM [6]: 178 MFI
MFI at 0.16 nM [6]: 356 MFI
MFI at 0.8 nM [6]: 632 MFI
MFI at 4 nM [6]: 714 MFI
MFI at 20 nM [6]: 844 MFI
MFI at 100 nM [6]: 1030 MFI
MFI [7]: 186 MFI
MFI [8]: 1140 MFI
Emax of OD450 nm binding value [9]: 0.67 OD450 nm
MFI [10]: 1460 MFI
MFI [11]: 212
MFI [12]: 884 MFI
MFI [13]: 140 MFI
MFI [14]: 4100 MFI
MFI [15]: 361 MFI
MFI [16]: 6500 MFI
MFI [17]: 838
MFI [18]: 11800 MFI
MFI [19]: 195 MFI
MFI [20]: 410 MFI
MFI [21]: 983
MFI [22]: 174 MFI
MFI [23]: 4140 MFI
MFI [24]: 121
MFI [25]: 980 MFI
MFI [26]: 711
MFI [27]: 1350 MFI
MFI [28]: 341 MFI
MFI [29]: 6970 MFI
MFI [30]: 10300 MFI
MFI [31]: 139
MFI [32]: 137 MFI
MFI [33]: 7310 MFI
MFI [34]: 11500 MFI
MFI [35]: 1160 MFI
B1: Hab015VL5VH1b-hFc (scFv, part only; not given: VL-VH linker and human IgG1 Fc, V domains shown, not shown: another chain or arm of the molecule; a dimerising Fc or GST; small tags and cut ends)
VL: NIQMTQSPSSLSASVGDRVTITCKASENVGTYVSWYQQKPGKSPKLLIYGASNRYTGVPSRFSGSGSGTDFTLTISSLQPEDFATYYCGQFYSFPSTFGGGTKVEIK
VH: EVQLVESGGGLVKPGGSLRLSCAASGITFSNFWMNWVRQAPGKGLEWVGQIRLKSEDYATHYAESVKGRFTISREDSKNTVYLQMNSLKTEDTAVYYCTTGYYFDYWGQGTTVTVSS

MFI [1]: 473
MFI [2]: 848
Emax of OD450 nm binding value [3]: 0.47 OD450 nm
MFI [4]: 139 MFI
MFI [5]: 122 MFI
MFI at 0.00128 nM [6]: 106 MFI
MFI at 0.0064 nM [6]: 122 MFI
MFI at 0.032 nM [6]: 189 MFI
MFI at 0.16 nM [6]: 405 MFI
MFI at 0.8 nM [6]: 666 MFI
MFI at 4 nM [6]: 785 MFI
MFI at 20 nM [6]: 876 MFI
MFI at 100 nM [6]: 1060 MFI
MFI [7]: 199 MFI
MFI [8]: 1330 MFI
Emax of OD450 nm binding value [9]: 0.64 OD450 nm
MFI [10]: 1580 MFI
MFI [11]: 230
MFI [12]: 953 MFI
MFI [13]: 142 MFI
MFI [14]: 4640 MFI
MFI [15]: 424 MFI
MFI [16]: 6610 MFI
MFI [17]: 929
MFI [18]: 12000 MFI
MFI [19]: 194 MFI
MFI [20]: 428 MFI
MFI [21]: 1110
MFI [22]: 166 MFI
MFI [23]: 4590 MFI
MFI [24]: 122
MFI [25]: 1030 MFI
MFI [26]: 779
MFI [27]: 1440 MFI
MFI [28]: 339 MFI
MFI [29]: 7090 MFI
MFI [30]: 10700 MFI
MFI [31]: 139
MFI [32]: 134 MFI
MFI [33]: 7380 MFI
MFI [34]: 12000 MFI
MFI [35]: 1240 MFI
B2: Hab015VL5VH5a-hFc (scFv, part only; not given: scFv linker and human IgG1 Fc, V domains shown, not shown: another chain or arm of the molecule; a dimerising Fc or GST; small tags and cut ends)
VL: B1 VL
VH: B1 VH with A23V, E56D
